One block for each molecule: values may come before it.
Key:
Type in all cases: physicochemical
[1] = Dispersion of hydrophilic species/amphiphile array in hydrophobic solvent: visual optical clarity
[2] = Percent sedimentation after 24 hours of macromolecules dispersed in oleic acid with and without PC; settings: 300 μl oleic acid, error ±5%; for Percent sedimentation after 24 hours, +PC: Example 17: with egg yolk PC SUVs; for Percent sedimentation after 24 hours, −PC: Example 17: without PC
Description: 10 mg of cytochrome C, haemoglobin and FITC-dextran were each dissolved in 1 ml of distilled water. 4.4 mg of RNA (extracted from Torula yeast) was dissolved in 1 ml of phosphate-buffered saline. 2×50 μl of each of these solution was dispensed into fresh glass tubes, and to one of each of these sets of solutions was added 250 μl of SUVs prepared as in example 1 at a concentration of 40 mg/ml of egg yolk lecithin (PC).
Both sets of tubes were shell-frozen and lyophilised overnight as above. The following day 300 μl of oleic acid was added to each of the tubes. The samples were left to stand at room temperature with occasional vortexing for one hour until complete dispersion had been achieved. The oils were allowed to stand overnight. The turbidity of the samples prepared without PC was greater than those containing PC.
The following day, sediments had settled out in the samples prepared without PC. Without disturbing any of the samples, the top 150 μl of each sample was taken off, and the absorbances measured of both the material removed, and the material left behind, after mixing; comparison of the two readings allowed one to calculate the percentage sedimentation for samples with and without PC (error in measurements ±5%) Values obtained are listed below.

[3] = Turbidity of oil preparations by optical density / absorbance (plate reader); settings: for OD650: Example 23: HDPoC, one hour; for optical density at 550 nm: Example 25: 0.5 mg protein/well, oleic acid
Description: It is very much preferred that the preparations of the invention are optically clear and this can be monitored by measuring turbidity at visible wave lengths and, in some cases, by checking for sedimentation over a period of time. […]
Aprotinin was dissolved in distilled water at a concentration of 10 mg/ml. Hexadecyl phosphocholine (HDPoC) was dissolved in distilled water at a concentration of 100 mg/ml. To aliquots of 100 μl of aprotinin solution, volumes of HDPOC were added ranging from 0 through to 10, 20, 30, 40 to 50 μl. The mixtures were frozen at −20° C. and lyophilised overnight. The following day 100 μl of oleic acid was added to each sample and shaken for one hour at room temperature on an orbital shaker.
Octyl glucoside was dissolved in distilled water and dispensed into wells of a microplate to give the following amounts of amphiphile per well: −0, 0.5, 1.0, 1.5, 2.0, 2.5, 5, 7.5 and 10 mg. Aprotinin was dissolved in distilled water at a concentration of 5 mg/ml, and 100 μl was dispensed into each well above, containing 0.5 mg of protein. The plate was mixed well, frozen at −20° C. and lyophilised overnight. The following day, […] of oleic acid was added to each well. The plate was shaken at room temperature, and optical density measurements at 550 nm taken at intervals with a plate reader. A low absorbance value indicates a low level of scattering, and corresponds to effective dispersion of protein in oil.
The results, expressed in terms of optical density as a function of octyl glucoside concentration (at constant protein concentration) at different times after addition of oleic acid are given in the table and accompanying graph.

[4] = Example 7: salmon calcitonin together with aprotinin, egg PC (EmulsiFlex), glycerol mono-oleate BP

appearance of solution ([1]; Example 27: soya PC dispersion, 1 g Miglyol 818, overnight at room temperature): optically clear solution
Molecule: NC[C@@H]1O[C@H](O[C@H]2[C@@H](O)[C@H](O[C@@H]3[C@@H](O)[C@H](N)C[C@H](N)[C@H]3O[C@H]3O[C@H](CN)[C@@H](O)[C@H](O)[C@H]3N)O[C@@H]2CO)[C@H](N)[C@@H](O)[C@@H]1O.O=S(=O)(O)O [Neomycin sulphate, reference compound]

Molecule: [Ca+2].[Cl-].[Cl-] [calcium chloride]
appearance of dispersion ([1]; Example 35: soy PC SUV, 500 mg Miglyol 818, after standing overnight): completely clear dispersion
appearance of dispersion ([1]; Example 35: soy PC SUV, 500 mg oleic acid, after several hours): completely clear dispersion

Molecule: Cytochrome C
Percent sedimentation after 24 hours, +PC [2]: 3.1%
Percent sedimentation after 24 hours, −PC [2]: 76%

Molecule: Haemoglobin
Percent sedimentation after 24 hours, +PC [2]: 0%
Percent sedimentation after 24 hours, −PC [2]: 44%

Molecule: Salmon calcitonin
appearance of oil phase ([1]; Example 1: egg PC SUVs, lyophilised, 300 mg oleic acid BP, one to two hours at room temperature): single clear lipid phase, which was optically transparent
protein content of clear preparation ([1]; Example 2: soy PC SUVs, 95% oleic acid): 6.7 mg protein/g oleic acid
appearance of preparation ([1]; Example 2: soy PC SUVs, lyophilised, 1.2 g of 95% oleic acid): completely clear
appearance of oil phase ([1]; Example 4: 13.4 mg protein, 100 mg soy PC, 200 mg oleic acid): clear oil phase
calcitonin content of clear oil phase ([1]; Example 4: soy PC SUVs, 200 mg oleic acid): 42.7 mg calcitonin/g
appearance of dispersion [1, 4]: optically clear opalescent dispersion
appearance of dispersion ([1]; Example 11: 30 mg soy PC, 300 mg MCT oil, following morning): opalescent
appearance of dispersion ([1]; Example 11: 30 mg soy PC, 300 mg Miglyol 810, following morning): turbid
appearance of dispersion ([1]; Example 11: 30 mg soy PC, 300 mg Miglyol 812, following morning): opalescent
appearance of dispersion ([1]; Example 11: 30 mg soy PC, 300 mg Miglyol 818, following morning): completely clear
appearance of dispersion ([1]; Example 11: 30 mg soy PC, 300 mg Miglyol 829, following morning): completely clear
appearance of dispersion ([1]; Example 11: 30 mg soy PC, 300 mg Miglyol 840, following morning): turbid

Molecule: aprotinin
appearance of oil phase ([1]; Example 3: lyophilate stored 5 days at 4° C. in desiccator with phosphorus pentoxide, then 300 mg oleic acid): optically clear oil phase
appearance of dispersion [1, 4]: optically clear opalescent dispersion
appearance of solution ([1]; Example 23: HDPoC, lipid:protein ratio 4:1, oleic acid): Optically clear solutions
appearance of solution ([1]; Example 23: HDPoC, lipid:protein ratio 5:1, oleic acid): Optically clear solutions
appearance of dispersion ([1]; Example 36: AOT amphiphile, 200 mg octanol, cleared rapidly, state after 24 hours): opalescent dispersion
OD650 ([3]; lipid:protein ratio 0, 100 μl oleic acid): 1.117
OD650 ([3]; lipid:protein ratio 1:1, 100 μl oleic acid): 0.869
OD650 ([3]; lipid:protein ratio 2:1, 100 μl oleic acid): 0.438
OD650 ([3]; lipid:protein ratio 3:1, 100 μl oleic acid): 0.207
OD650 ([3]; lipid:protein ratio 4:1, 100 μl oleic acid): 0.094
OD650 ([3]; lipid:protein ratio 5:1, 100 μl oleic acid): 0.099
optical density at 550 nm ([3]; octyl glucoside 0.00 mg/well, 1 hr): 0.548
optical density at 550 nm ([3]; octyl glucoside 0.00 mg/well, 4 hr): 0.458
optical density at 550 nm ([3]; octyl glucoside 0.00 mg/well, 8 hr): 0.489
optical density at 550 nm ([3]; octyl glucoside 0.50 mg/well, 1 hr): 0.082
optical density at 550 nm ([3]; octyl glucoside 0.50 mg/well, 4 hr): 0.043
optical density at 550 nm ([3]; octyl glucoside 0.50 mg/well, 8 hr): 0.103
optical density at 550 nm ([3]; octyl glucoside 1.00 mg/well, 1 hr): −0.003
optical density at 550 nm ([3]; octyl glucoside 1.00 mg/well, 4 hr): −0.008
optical density at 550 nm ([3]; octyl glucoside 1.00 mg/well, 8 hr): −0.008
optical density at 550 nm ([3]; octyl glucoside 1.50 mg/well, 1 hr): −0.004
optical density at 550 nm ([3]; octyl glucoside 1.50 mg/well, 4 hr): −0.015
optical density at 550 nm ([3]; octyl glucoside 1.50 mg/well, 8 hr): −0.015
optical density at 550 nm ([3]; octyl glucoside 2.00 mg/well, 1 hr): −0.007
optical density at 550 nm ([3]; octyl glucoside 2.00 mg/well, 4 hr): −0.012
optical density at 550 nm ([3]; octyl glucoside 2.00 mg/well, 8 hr): −0.013
optical density at 550 nm ([3]; octyl glucoside 2.50 mg/well, 1 hr): 0.006
optical density at 550 nm ([3]; octyl glucoside 2.50 mg/well, 4 hr): −0.004
optical density at 550 nm ([3]; octyl glucoside 2.50 mg/well, 8 hr): −0.002
optical density at 550 nm ([3]; octyl glucoside 5.00 mg/well, 1 hr): 0.307
optical density at 550 nm ([3]; octyl glucoside 5.00 mg/well, 4 hr): −0.013
optical density at 550 nm ([3]; octyl glucoside 5.00 mg/well, 8 hr): −0.014
optical density at 550 nm ([3]; octyl glucoside 7.50 mg/well, 1 hr): 0.65
optical density at 550 nm ([3]; octyl glucoside 7.50 mg/well, 4 hr): −0.015
optical density at 550 nm ([3]; octyl glucoside 7.50 mg/well, 8 hr): −0.014
optical density at 550 nm ([3]; octyl glucoside 10.00 mg/well, 1 hr): 1.628
optical density at 550 nm ([3]; octyl glucoside 10.00 mg/well, 4 hr): 0.817
optical density at 550 nm ([3]; octyl glucoside 10.00 mg/well, 8 hr): −0.014

appearance of dispersions ([1]; Example 33: soy PC SUV, melts of tripalmitin, triheptadecanoin or tristearin with 2% oleic acid, 78 C, after several minutes): completely clear
Molecule: carboxyfluorescein [reference compound]

Molecule: ferritin
appearance of solution ([1]; Example 18: egg yolk PC SUVs, ammonium acetate 10 mg/ml, oleic acid): optically clear solutions were obtained (although ferritin solution showed some opalescence, and was strongly coloured)

Molecule: ribonuclease
appearance of dispersion ([1]; Example 31: soy PC SUV, 1.6 g Miglyol 818, after several hours): clear dispersion
